In the experiment the target is tumor necrosis factor alpha (TNFα) (rat) (UniProt P16599). Kind of experiment: cell-based or functional assay.
UniProt P16599, sequence (P16599 80-235 limits assumed): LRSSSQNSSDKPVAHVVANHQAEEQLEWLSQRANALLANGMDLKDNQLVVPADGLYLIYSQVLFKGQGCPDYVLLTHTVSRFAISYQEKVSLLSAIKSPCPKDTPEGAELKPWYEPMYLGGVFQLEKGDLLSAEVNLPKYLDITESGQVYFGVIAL

Take “TNFRII:Fc receptor fragment (from UniProt P20333 23-257) (Fc fusion)”: the SPH release from hypoxic (5 hrs) adult rat cardiomyocytes after pretreatment with TNFRII:Fc (fold reduction) was 3.

Source of the values: patent publication EP1731161A1.
